Measurements from article PMC4822050 (2016).

Experiments:
[1] = target: T1, PHD of UHRF1 (residues 307–366) (human, UniProt Q96T88 307-366); experiment: ITC
T1 chain: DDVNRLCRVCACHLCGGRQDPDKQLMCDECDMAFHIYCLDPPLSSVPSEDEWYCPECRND

[2] = target: T2, PHD-SRA of UHRF1 (human); experiment: ITC
T2 chain: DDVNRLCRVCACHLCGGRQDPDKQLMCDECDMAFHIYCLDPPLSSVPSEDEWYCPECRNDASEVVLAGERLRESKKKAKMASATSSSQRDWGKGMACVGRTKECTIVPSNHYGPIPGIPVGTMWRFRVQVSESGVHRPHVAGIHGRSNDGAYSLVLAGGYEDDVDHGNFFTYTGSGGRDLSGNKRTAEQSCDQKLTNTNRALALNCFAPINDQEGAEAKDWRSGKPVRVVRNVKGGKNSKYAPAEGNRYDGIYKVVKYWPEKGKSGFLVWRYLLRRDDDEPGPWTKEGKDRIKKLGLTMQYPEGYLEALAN

[3] = target: T1, PHD of UHRF1 (residues 307–366); experiment: ITC; in presence of SRA (1:1)
[4] = target: T1, PHD of UHRF1 (residues 307–366); experiment: ITC; in presence of SRA (1:2)
[5] = target: T1, PHD of UHRF1 (residues 307–366); experiment: ITC; in presence of SRA (PHD/SRA 1:1)
[6] = target: T1, PHD of UHRF1 (residues 307–366); experiment: ITC; in presence of SRA (PHD/SRA 1:2)

Kd [1]: 0.77 µM
Kd [2]: 5.79 µM
Kd [3]: 2.04 µM
Kd [4]: 4.64 µM
Kd [5]: 2.04 µM
Kd [6]: 4.64 µM
Binder: ARTKQTARKSTGGKAPR [H3 peptide (1–17)]
